From patent US20130209454A1
Changes are numbered by the printed parent chain. Numbers in names are those of the source. Read-outs that look alike come from different tables or passages of the source.

Legend:
Test in all cases: cell-based or functional assay
[1] = target: HIV-1 Env of strain CAP210.2.00.E8 (HIV-1)
[2] = target: HIV-1 Env of strain SC422661.8 (HIV-1)
[3] = target: HIV-1 Env of strain TRO.11 (HIV-1)
[4] = target: HIV-1 Env of strain AC10.0.29 (HIV-1)
[5] = target: HIV-1 Env of strain CAP45.2.00.G3 (HIV-1)
[6] = target: HIV-1 strain 1056_10_TA11_1826 envelope (gp120) (HIV-1)
[7] = target: HIV-1 strain CAAN5342.A2 envelope (gp120) (HIV-1)
[8] = target: HIV-1 Env of strain ZM247v1(Rev-) (HIV-1)
[9] = target: HIV-1 Env of strain ZM109F.PB4 (HIV-1)
[10] = target: HIV-1 Env of strain 3103.v3.c10 (HIV-1)
[11] = target: HIV-1 Env of strain 62357_14_D3_4589 (HIV-1)
[12] = target: HIV-1 Env of strain R2184.c04 (HIV-1)
[13] = target: HIV-1 Env of strain Q461.e2 (HIV-1)
[14] = target: HIV-1 Env of strain Q259.d2.17 (HIV-1)
[15] = target: HIV-1 strain Ce2060_G9 envelope (gp120) (HIV-1)
[16] = target: HIV-1 Env of strain CAAN5342.A2 (HIV-1)
[17] = target: HIV-1 Env of strain Du422.1 (HIV-1)
[18] = target: HIV-1 strain T255-34 envelope (gp120) (HIV-1)
[19] = target: HIV-1 Env of strain HIV-16845-2.22 (HIV-1)
[20] = target: HIV-1 Env of strain Ce1176_A3 (HIV-1)
[21] = target: HIV-1 Env of strain Q23.17 (HIV-1)
[22] = target: HIV-1 strain ZM53M.PB12 envelope (gp120) (HIV-1)
[23] = target: HIV-1 Env of strain CNE53 (HIV-1)
[24] = target: HIV-1 strain 6535.3 envelope (gp120) (HIV-1)
[25] = target: HIV-1 strain 3415.v1.c1 envelope (gp120) (HIV-1)
[26] = target: HIV-1 Env of strain 231965.c01 (HIV-1)
[27] = target: HIV-1 strain 231966.c02 envelope (gp120) (HIV-1)
[28] = target: HIV-1 Env of strain 0330.v4.c3 (HIV-1)
[29] = target: HIV-1 Env of strain ZM214M.PL15 (HIV-1)
[30] = target: HIV-1 strain C2101.c01 envelope (gp120) (HIV-1)
[31] = target: HIV-1 Env of strain 6540.v4.cl (HIV-1)
[32] = target: HIV-1 Env of strain ZM135M.PL10a (HIV-1)
[33] = target: HIV-1 strain 3718.v3.c11 envelope (gp120) (HIV-1)
[34] = target: HIV-1 strain C1080.c03 envelope (gp120) (HIV-1)
[35] = target: HIV-1 Env of strain 3817.v2.c59 (HIV-1)
[36] = target: HIV-1 strain 3301.v1.c24 envelope (gp120) (HIV-1)
[37] = target: HIV-1 Env of strain CNE20 (HIV-1)
[38] = target: HIV-1 Env of strain 6480.v4.c25 (HIV-1)
[39] = target: HIV-1 Env of strain Ce703010054_2A2 (HIV-1)
[40] = target: HIV-1 strain ZM197M.PB7 envelope (gp120) (HIV-1)
[41] = target: HIV-1 Env of strain X1254_c3 (HIV-1)
[42] = target: HIV-1 strain Q769.d22 envelope (gp120) (HIV-1)
[43] = target: HIV-1 strain ZM135M.PL10a envelope (gp120) (HIV-1)
[44] = target: HIV-1 Env of strain Q769.d22 (HIV-1)
[45] = target: HIV-1 strain HIV-16845-2.22 envelope (gp120) (HIV-1)
[46] = target: HIV-1 Env of strain Ce0393_C3 (HIV-1)
[47] = target: HIV-1 strain CNE17 envelope (gp120) (HIV-1)
[48] = target: HIV-1 Env of strain AC10.0.29 (HIV-1); remark: listed apart in the source
[49] = target: HIV-1 Env of strain Du172.17 (HIV-1)
[50] = target: HIV-1 Env of strain 89-F1_2_25 (HIV-1)

B1: NIH45-46^G54W IgG (antibody, name in Kabat numbering, V domains shown)
VH: QVRLSQSGGQMKKPGESMRLSCRASGYEFLNCPINWIRLAPGRRPEWMGWLKPRWGAVNYARKFQGRVTMTRDVYSDTAFLELRSLTSDDTAVYFCTRGKYCTARDYYNWDFEHWGRGAPVTVSS
VL: EIVLTQSPATLSLSPGETAIISCRTSQSGSLAWYQQRPGQAPRLVIYSGSTRAAGIPDRFSGSRWGADYNLSISNLESGDFGVYYCQQYEFFGQGTKVQVDI
- neutralization IC50 [1]: 41 µg/mL
- neutralization IC50 [2]: 0.03 µg/mL
- neutralization IC50 [3]: 0.09 µg/mL
- neutralization IC50 [4]: 0.2 µg/mL
- neutralization IC50 [5]: 6.6 µg/mL
- neutralization IC80 [6]: 0.16 µg/mL
- neutralization IC80 [7]: 0.21 µg/mL
- neutralization IC50 [8]: 0.32 µg/mL
- neutralization IC50 [9]: 0.002 µg/mL
- neutralization IC50 [10]: 0.2 µg/mL
- neutralization IC50 [11]: 0.02 µg/mL
- neutralization IC50 [12]: 0.005 µg/mL
- neutralization IC50 [13]: 0.009 µg/mL
- neutralization IC50 [14]: < 0.001 µg/mL
- neutralization IC80 [15]: 0.042 µg/mL
- neutralization IC50 [16]: 0.07 µg/mL
- neutralization IC50 [17]: > 50 µg/mL
- neutralization IC80 [18]: 0.099 µg/mL
- neutralization IC50 [19]: 0.45 µg/mL
- neutralization IC50 [20]: 0.16 µg/mL
- neutralization IC50 [21]: 0.01 µg/mL
- neutralization IC80 [22]: 0.16 µg/mL
- neutralization IC50 [23]: < 0.001 µg/mL
- neutralization IC80 [24]: 0.13 µg/mL
- neutralization IC80 [25]: 0.023 µg/mL
- neutralization IC50 [26]: < 0.001 µg/mL
- neutralization IC80 [27]: 0.11 µg/mL
- neutralization IC50 [28]: 0.03 µg/mL
- neutralization IC50 [29]: 0.03 µg/mL
- neutralization IC80 [30]: 0.17 µg/mL
- neutralization IC50 [31]: > 50 µg/mL
- neutralization IC50 [32]: 0.04 µg/mL
- neutralization IC80 [33]: 0.04 µg/mL
- neutralization IC80 [34]: 0.91 µg/mL
- neutralization IC50 [35]: > 50 µg/mL
- neutralization IC80 [36]: 0.004 µg/mL
- neutralization IC50 [37]: 0.04 µg/mL
- neutralization IC50 [38]: 0.004 µg/mL
- neutralization IC50 [39]: 0.027 µg/mL
- neutralization IC80 [40]: 0.18 µg/mL
- neutralization IC50 [41]: 0.002 µg/mL
- neutralization IC80 [42]: 0.009 µg/mL
- neutralization IC80 [43]: 0.16 µg/mL
- neutralization IC50 [44]: < 0.001 µg/mL
- neutralization IC80 [45]: 2.1 µg/mL
- neutralization IC50 [46]: 0.013 µg/mL
- neutralization IC80 [47]: 0.127 µg/mL
- neutralization IC50 [48]: 0.13 µg/mL
- neutralization IC50 [49]: 3.65 µg/mL
- neutralization IC50 [50]: > 50 µg/mL

B2: NIH45-46^G54F IgG (antibody, name in Kabat numbering, V domains shown)
VH: B1 VH with W55F
VL: B1 VL
- neutralization IC50 [1]: > 50 µg/mL
- neutralization IC50 [2]: 0.02 µg/mL
- neutralization IC50 [3]: 0.08 µg/mL
- neutralization IC50 [4]: 0.3 µg/mL
- neutralization IC50 [5]: > 50 µg/mL
- neutralization IC80 [6]: 0.283 µg/mL
- neutralization IC80 [7]: 0.28 µg/mL
- neutralization IC50 [8]: 0.28 µg/mL
- neutralization IC50 [9]: 0.022 µg/mL
- neutralization IC50 [10]: 0.37 µg/mL
- neutralization IC50 [11]: 0.04 µg/mL
- neutralization IC50 [12]: 0.015 µg/mL
- neutralization IC50 [13]: 0.03 µg/mL
- neutralization IC50 [14]: 0.009 µg/mL
- neutralization IC80 [15]: 0.085 µg/mL
- neutralization IC50 [16]: 0.1 µg/mL
- neutralization IC50 [17]: > 50 µg/mL
- neutralization IC80 [18]: 0.198 µg/mL
- neutralization IC50 [19]: 0.59 µg/mL
- neutralization IC50 [20]: 0.24 µg/mL
- neutralization IC50 [21]: 0.03 µg/mL
- neutralization IC80 [22]: 0.23 µg/mL
- neutralization IC50 [23]: 0.005 µg/mL
- neutralization IC80 [24]: 0.27 µg/mL
- neutralization IC80 [25]: 0.029 µg/mL
- neutralization IC50 [26]: 0.022 µg/mL
- neutralization IC80 [27]: 0.24 µg/mL
- neutralization IC50 [28]: 0.04 µg/mL
- neutralization IC50 [29]: 0.09 µg/mL
- neutralization IC80 [30]: 0.42 µg/mL
- neutralization IC50 [31]: > 50 µg/mL
- neutralization IC50 [32]: 0.13 µg/mL
- neutralization IC80 [33]: 4.62 µg/mL
- neutralization IC80 [34]: 2.26 µg/mL
- neutralization IC50 [35]: > 50 µg/mL
- neutralization IC80 [36]: 0.011 µg/mL
- neutralization IC50 [37]: 0.53 µg/mL
- neutralization IC50 [38]: 0.014 µg/mL
- neutralization IC50 [39]: 0.02 µg/mL
- neutralization IC80 [40]: 0.23 µg/mL
- neutralization IC50 [41]: 0.011 µg/mL
- neutralization IC80 [42]: 0.023 µg/mL
- neutralization IC80 [43]: 0.43 µg/mL
- neutralization IC50 [44]: 0.005 µg/mL
- neutralization IC80 [45]: 2.75 µg/mL
- neutralization IC50 [46]: 0.04 µg/mL
- neutralization IC80 [47]: 0.287 µg/mL
- neutralization IC50 [48]: 0.24 µg/mL
- neutralization IC50 [49]: > 50 µg/mL
- neutralization IC50 [50]: > 50 µg/mL
